This series concerns the target T1, PUF4 RNA-binding domain (Saccharomyces cerevisiae, UniProt P25339 537-888).
T1 sequence: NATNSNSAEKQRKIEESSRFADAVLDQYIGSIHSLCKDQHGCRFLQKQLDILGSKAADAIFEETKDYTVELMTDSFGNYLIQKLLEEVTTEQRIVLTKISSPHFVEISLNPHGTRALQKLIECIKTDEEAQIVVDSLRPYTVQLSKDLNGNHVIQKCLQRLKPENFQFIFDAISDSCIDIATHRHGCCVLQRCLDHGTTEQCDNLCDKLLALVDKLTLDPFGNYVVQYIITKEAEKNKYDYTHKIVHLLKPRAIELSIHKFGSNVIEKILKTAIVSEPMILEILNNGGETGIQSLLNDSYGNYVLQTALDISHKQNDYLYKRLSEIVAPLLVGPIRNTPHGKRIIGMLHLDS
In words: Mg; RNA-MaP; 20 mM Na-HEPES pH 7.4, 30 mM KOAc, 0.75 mM MgCl2, 0.1% Tween-20, 5% glycerol, 0.1 mg/mL BSA, 2 mM DTT; 25 C; 0.0125-409.6 nM protein. The settings on record: tags: N-His6-TEV cleaved; C-SNAP kept, Cy3B-labelled; label: tethered on chip by stalled RNA polymerase.

B1: Id_ii_S4_P3E.3_K3.2_C3.2_[C-2G]_H3.2_A3.1_F3.1_T3.2_[T9C]_[A10T] (ssRNA)
RNA: UUUGACAACUGAUCGUUCUUUCUGUUAUAUAUACUUUCUUUCUCGAUCAGUUGUCUUU
For orientation: Kd means the constant that tells how readily two partners part at equilibrium. Read a low Kd as tighter binding. For the molecule B1, the Kd was 146 nM.

B2: Id_ii_S4_P3E.3_K3.2_C3.2_[C-2T]_[T-1A]_H3.2_A3.1_F3.1_T3.2_[T9A]_[A10C] (ssRNA)
RNA: UUUGACAACUGAUCGUUCUUUCUUAUAUAUAUAACUUCUUUCUCGAUCAGUUGUCUUU
Molecule B2 returned a Kd of 326 nM. This Kd lies about 2.2-fold higher than the previous one.

B3: Id_ii_S4_P3E.3_K3.2_C3.2_[C-2T]_[T-1A]_H3.2_A3.1_F3.1_T3.2_[T9C] (ssRNA)
RNA: UUUGACAACUGAUCGUUCUUUCUUAUAUAUAUACAUUCUUUCUCGAUCAGUUGUCUUU
Take B3: the Kd stood at 94.6 nM.

B4: Id_ii_S4_P3E.3_K3.2_C3.2_[C-2T]_[T-1C]_H3.2_A3.1_F3.1_T3.2_[A10C] (ssRNA)
RNA: UUUGACAACUGAUCGUUCUUUCUUCUAUAUAUAUCUUCUUUCUCGAUCAGUUGUCUUU
For B4, the Kd came out at 120 nM.

B5: Id_ii_S4_P3E.3_K3.2_C3.2_[C-2G]_H3.2_A3.1_F3.1_T3.2_[A10T] (ssRNA)
RNA: UUUGACAACUGAUCGUUCUUUCUGUUAUAUAUAUUUUCUUUCUCGAUCAGUUGUCUUU
B5: the Kd stood at 16.8 nM.

B6: Id_ii_S4_P3E.3_K3.2_C3.2_[C-2T]_H3.2_A3.1_F3.1_T3.2_[T9C] (ssRNA)
RNA: UUUGACAACUGAUCGUUCUUUCUUUUAUAUAUACAUUCUUUCUCGAUCAGUUGUCUUU
B6 returned a Kd of 220 nM.

B7: Id_ii_S4_P3E.3_K3.2_C3.2_[C-2G]_H3.2_A3.1_F3.1_T3.2 (ssRNA)
RNA: UUUGACAACUGAUCGUUCUUUCUGUUAUAUAUAUAUUCUUUCUCGAUCAGUUGUCUUU
As to B7, the Kd came out at 43.8 nM.

B8: Id_ii_S4_P3E.3_K3.2_C3.2_[C-2T]_[T-1C]_H3.2_A3.1_F3.1_T3.2_[T9A] (ssRNA)
RNA: UUUGACAACUGAUCGUUCUUUCUUCUAUAUAUAAAUUCUUUCUCGAUCAGUUGUCUUU
On to B8, for which binding was put at a Kd of 472 nM. Against the preceding molecule, the Kd is about 11-fold higher.

B9: Id_ii_S4_P3E.3_K3.2_C3.2_[C-2T]_[T-1G]_H3.2_A3.1_F3.1_T3.2_[T9A]_[A10T] (ssRNA)
RNA: UUUGACAACUGAUCGUUCUUUCUUGUAUAUAUAAUUUCUUUCUCGAUCAGUUGUCUUU
B9 yielded a Kd of 1.81 nM.

B10: Id_ii_S4_P3E.3_K3.2_C3.2_[C-2T]_H3.2_A3.1_F3.1_T3.2_[T9G]_[A10T] (ssRNA)
RNA: UUUGACAACUGAUCGUUCUUUCUUUUAUAUAUAGUUUCUUUCUCGAUCAGUUGUCUUU
The molecule B10 registered a Kd of 575 nM.

B11: Id_ii_S4_P3E.3_K3.2_C3.2_[C-2T]_[T-1C]_H3.2_A3.1_F3.1_T3.2_[T9A]_[A10T] (ssRNA)
RNA: UUUGACAACUGAUCGUUCUUUCUUCUAUAUAUAAUUUCUUUCUCGAUCAGUUGUCUUU
In turn, B11 had a Kd of 151 nM.

B12: Id_ii_S4_P3E.3_K3.2_C3.2_[C-2T]_[T-1G]_H3.2_A3.1_F3.1_T3.2_[T9G]_[A10C] (ssRNA)
RNA: UUUGACAACUGAUCGUUCUUUCUUGUAUAUAUAGCUUCUUUCUCGAUCAGUUGUCUUU
In turn, B12 yielded an equilibrium dissociation constant (Kd) of 2.89 nM.

B13: Id_ii_S4_P3E.3_K3.2_C3.2_[C-2T]_[T-1A]_H3.2_A3.1_F3.1_T3.2_[A10C] (ssRNA)
RNA: UUUGACAACUGAUCGUUCUUUCUUAUAUAUAUAUCUUCUUUCUCGAUCAGUUGUCUUU
The molecule B13 displayed a Kd of 108 nM.

B14: Id_ii_S4_P3E.3_K3.2_C3.2_[C-2T]_[T-1C]_H3.2_A3.1_F3.1_T3.2_[T9C]_[A10G] (ssRNA)
RNA: UUUGACAACUGAUCGUUCUUUCUUCUAUAUAUACGUUCUUUCUCGAUCAGUUGUCUUU
Regarding B14, the Kd was found to be 467 nM. Compared with the last molecule, the Kd is about 4.3-fold higher.

B15: Id_ii_S4_P3E.3_K3.2_C3.2_[C-2T]_[T-1C]_H3.2_A3.1_F3.1_T3.2_[A10T] (ssRNA)
RNA: UUUGACAACUGAUCGUUCUUUCUUCUAUAUAUAUUUUCUUUCUCGAUCAGUUGUCUUU
B15 came in with a Kd of 38 nM.

B16: Id_ii_S4_P3E.3_K3.2_C3.2_[C-2G]_H3.2_A3.1_F3.1_T3.2_[T9A]_[A10G] (ssRNA)
RNA: UUUGACAACUGAUCGUUCUUUCUGUUAUAUAUAAGUUCUUUCUCGAUCAGUUGUCUUU
For the molecule B16, the Kd was 304 nM.

B17: Id_ii_S4_P3E.3_K3.2_C3.2_[C-2T]_[T-1C]_H3.2_A3.1_F3.1_T3.2_[T9C] (ssRNA)
RNA: UUUGACAACUGAUCGUUCUUUCUUCUAUAUAUACAUUCUUUCUCGAUCAGUUGUCUUU
As to B17, binding was characterised by a dissociation constant (Kd) of 252 nM.

B18: Ib_S1_P5E.1_K5.1_C5.1_H5.1_[T1C]_A5.1_[A7G]_F5.1_T5.1 (ssRNA)
RNA: UCUCUUCGUAUUGUUAUCUCUU
On to B18, for which the Kd was > 2300 nM.

B19: Ib_S1_P5E.1_K5.1_C5.1_H5.1_[T1A]_A5.1_[T6A]_F5.1_T5.1 (ssRNA)
RNA: UCUCUUAGUAUAAUUAUCUCUU
B19 yielded a Kd of 1030 nM.

These data come from paper PMC9352680, “A comprehensive thermodynamic model for RNA binding by the Saccharomyces cerevisiae Pumilio protein PUF4”.
